Molecular target: the molecule itself
Assay: cryo-EM structure; 1 uM P. furiosus 30S subunits with 5 uM aRDF (1:5) in 20 mM HEPES-KOH pH 7.0, 12 mM MgCl2, 100 mM NH4Cl, 0.5 mM EDTA; 15 min at 70 °C before freezing; Structures I and II at 3.2 Å

B1: archaeal ribosome dimerization factor (aRDF) (natural protein, Pyrococcus furiosus)
chain: MKVVGIKGSVSYLQALKYLKTKKVTKRLKEIEKLVDTLITLAPYAPEGSKIETIRKNYAKISFNKIKTVSRSKIGSPRIKSIMLLLWNFGLLDVKIIENSWYVRKTKLASLLEENFKDLSPSEKLKVYLLGGLLVDTPARFVYRCTLNGVEDYKGVKKAILGYLSDQRSNSLIIGLSNMLESIKFIEEAQAYSGKKEYIGLVDVAFYGLSGLYLDVKRESGKLTVKPNFRELRALYEIDKSVATGSDYGLSISKEILENLANTKRRKTIFSEEVQELLVNVIKENAISISQDLQNMYGII
notes: aRDF (PF0560 protein) of Pyrococcus furiosus; modelled in PDB 9FNY and 9FNZ with poorly defined loops omitted; Forms homodimers (monomers A and B); two homodimers bridge two 30S subunits in the cryo-EM structures; also called PF0560; PF0560 protein; source: E. coli BL21(DE3), purified (heat treatment, Ni-NTA, heparin)
With B1 the “stoichiometry N” value was 2.
